Experimental findings from patent US20250092133A1 (Amgen, published 2025) are described below.

Experiment [1] deals with T1, Hu CDH3 Dom3 mu (aa 328-440), human/mouse chimeric CDH3 on CHO cells (chimeric hu/mu). Kind of experiment: flow cytometry, transfected CHO cells; crude undiluted periplasmic scFv extract; anti-FLAG M2 + anti-mouse IgG Fcγ-PE; control PBS/2% FCS. The protocol:
(§1) Cells transfected with human or murine CDH3, or with the chimeric human/mouse CDH3 molecules (see Example 1) were stained with crude, undiluted periplasmic extract containing scFv binding to human/macaque CDH3. […] As negative control, cells were incubated with PBS/2% FCS instead of the periplasmic extract. The samples were measured by flow cytometry.

Experiment [2] concerns the target T2, murine CDH3 on cells (mouse, UniProt P10287 100-822).
T2 construct: negative control; also called mouse CDH3
T2 sequence: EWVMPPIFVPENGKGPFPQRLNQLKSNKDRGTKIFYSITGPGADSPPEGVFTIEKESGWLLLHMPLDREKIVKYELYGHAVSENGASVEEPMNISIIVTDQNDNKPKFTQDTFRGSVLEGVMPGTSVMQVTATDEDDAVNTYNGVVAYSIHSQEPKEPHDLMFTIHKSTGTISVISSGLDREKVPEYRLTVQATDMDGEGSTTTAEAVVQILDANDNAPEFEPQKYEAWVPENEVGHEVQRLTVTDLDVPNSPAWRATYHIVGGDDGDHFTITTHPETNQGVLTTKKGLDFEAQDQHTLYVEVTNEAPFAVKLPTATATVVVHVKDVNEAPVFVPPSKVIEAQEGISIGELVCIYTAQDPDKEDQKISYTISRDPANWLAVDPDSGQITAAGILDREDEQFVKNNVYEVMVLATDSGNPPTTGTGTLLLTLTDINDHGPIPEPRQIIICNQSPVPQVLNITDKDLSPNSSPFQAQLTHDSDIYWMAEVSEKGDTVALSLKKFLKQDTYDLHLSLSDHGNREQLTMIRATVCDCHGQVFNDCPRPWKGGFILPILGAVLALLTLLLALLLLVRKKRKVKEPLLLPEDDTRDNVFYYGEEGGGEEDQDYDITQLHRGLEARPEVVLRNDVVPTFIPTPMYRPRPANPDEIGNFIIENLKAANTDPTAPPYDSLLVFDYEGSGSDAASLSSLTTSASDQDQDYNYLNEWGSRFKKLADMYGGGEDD
The experiment is described as follows: flow cytometry, transfected CHO cells; crude periplasmic scFv extract; anti-FLAG M2 + anti-mouse IgG Fcγ-PE. The protocol: as §1

In experiment [3] the target is T1, Hu CDH3 Dom3 mu (aa 328-440), …. The experiment is described as above. The protocol:
as §1

Experiment [4] concerns the target Hu CDH3 Dom3A mu (aa 328-363), human/mouse chimeric CDH3 on CHO cells (chimeric hu/mu, UniProt P22223 108-681 (human entry)). The description is as above. The protocol: as §1
For experiment [5], the target named is T3, Hu CDH3 Dom3C mu (aa 404-440), human/mouse chimeric CDH3 on CHO cells (chimeric hu/mu, UniProt P22223 108-681 (human entry)). Described as above. The protocol:
as §1

Experiment [6] concerns the target T4, human CDH3 (P-cadherin) on cells (human, UniProt P22223 108-829).
T4 construct: The entry includes signal peptide and pro-peptide; extracellular domain D1 starts at aa 108; also called hu CDH3; hu CDH-3
Kind of experiment: flow cytometry, transfected CHO cells; crude undiluted periplasmic scFv extract; anti-FLAG M2 + anti-mouse IgG Fcγ-PE; control PBS/2% FCS. The protocol:
as §1

Experiment [7] concerns the target T5, Hu CDH3 Dom2 mu (aa 216-327), human/mouse chimeric CDH3 on CHO cells (chimeric hu/mu).
T5 chain: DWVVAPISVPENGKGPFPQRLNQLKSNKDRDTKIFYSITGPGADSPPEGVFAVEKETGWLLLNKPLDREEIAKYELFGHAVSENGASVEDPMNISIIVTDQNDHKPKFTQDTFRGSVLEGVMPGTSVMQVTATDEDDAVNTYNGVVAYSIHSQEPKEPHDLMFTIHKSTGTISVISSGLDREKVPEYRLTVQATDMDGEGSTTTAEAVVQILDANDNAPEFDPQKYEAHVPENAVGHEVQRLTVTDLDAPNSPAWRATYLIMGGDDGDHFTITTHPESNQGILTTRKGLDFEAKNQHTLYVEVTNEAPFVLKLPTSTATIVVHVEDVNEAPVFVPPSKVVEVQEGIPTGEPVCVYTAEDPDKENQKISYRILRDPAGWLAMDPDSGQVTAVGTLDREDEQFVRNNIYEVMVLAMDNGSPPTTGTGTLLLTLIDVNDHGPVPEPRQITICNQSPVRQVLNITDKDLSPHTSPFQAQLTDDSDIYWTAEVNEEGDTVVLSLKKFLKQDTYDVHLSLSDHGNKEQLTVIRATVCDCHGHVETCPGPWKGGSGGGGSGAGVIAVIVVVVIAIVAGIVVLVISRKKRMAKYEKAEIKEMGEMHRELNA
The experiment is described as above. The protocol: as §1

The target of experiment [8] is Hu CDH3 Dom3B mu (aa 364-403), human/mouse chimeric CDH3 on CHO cells (chimeric hu/mu, UniProt P22223 108-681 (human entry)). The description is as above. The protocol:
as §1

Experiment [9] addresses T3, Hu CDH3 Dom3C mu (aa 404-440), …. Described as above. The protocol: as §1
In experiment [10] the target is T6, Hu CDH3 Dom1B mu (aa 144-179), human/mouse chimeric CDH3 on CHO cells (chimeric hu/mu, UniProt P22223 108-681 (human entry)).
T6 chain: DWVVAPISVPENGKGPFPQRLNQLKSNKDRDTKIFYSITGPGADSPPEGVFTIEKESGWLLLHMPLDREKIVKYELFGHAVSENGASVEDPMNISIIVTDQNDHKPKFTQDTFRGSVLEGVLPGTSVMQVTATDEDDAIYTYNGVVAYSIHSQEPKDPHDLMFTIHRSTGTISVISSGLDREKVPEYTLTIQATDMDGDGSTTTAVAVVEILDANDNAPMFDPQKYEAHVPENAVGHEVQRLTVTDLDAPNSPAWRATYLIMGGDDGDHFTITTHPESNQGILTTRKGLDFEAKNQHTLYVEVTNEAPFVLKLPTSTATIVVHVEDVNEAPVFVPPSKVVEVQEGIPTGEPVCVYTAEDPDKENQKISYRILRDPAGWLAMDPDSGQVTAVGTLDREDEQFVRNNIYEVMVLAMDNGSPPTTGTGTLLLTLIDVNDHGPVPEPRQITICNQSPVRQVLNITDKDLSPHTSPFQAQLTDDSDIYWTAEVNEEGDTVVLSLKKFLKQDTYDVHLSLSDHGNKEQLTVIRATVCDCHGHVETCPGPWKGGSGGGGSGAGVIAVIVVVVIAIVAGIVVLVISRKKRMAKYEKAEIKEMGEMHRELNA
The experiment is described as follows: flow cytometry, transfected CHO cells; crude periplasmic scFv extract; anti-FLAG M2 + anti-mouse IgG Fcγ-PE. The protocol:
as §1

The target of experiment [11] is T7, Hu CDH3 Dom1C mu (aa 180-215), human/mouse chimeric CDH3 on CHO cells (chimeric hu/mu, UniProt P22223 108-681 (human entry)).
T7 chain: T6 chain with T52A, I53V, S57T, H63N, M64K, K70E, V72A, F77Y, D90E, H104N
The experiment is described as follows: flow cytometry, transfected CHO cells; crude undiluted periplasmic scFv extract; anti-FLAG M2 + anti-mouse IgG Fcγ-PE; control PBS/2% FCS. The protocol:
as §1

Numbering of substitutions follows the chain as printed.

B1: CDH3-7 (scFv)
scFv: EVQLVEQSGAELVKPGASVKISCKASGYAFSSSWMNWVKQRPGKGLEWIGRIYPGDGETKYNGKFKGKATLTADKSSSTAYMQLSTLTSEDSAVYFCARQRDYGALYAMDYWGQGTSVTVSSGGGGSGGGGSGGGGSELQMTQSPASLSASVGETVTITCRLSENIYSYLAWYRQKEGESPQLLVYNSKTLAEGVPSRFSGSGSGTQFSLKINSLQPEDFGNYYCQNHYGFPFTFGAGTKLEIK
notes: Used as crude periplasmic extract and detected through a FLAG tag; also called CDH3-7 scFv
B1: the binding result in [1] is reported as “binds”.

B2: CDH3-32 scFv (scFv)
scFv: EVQLVEQPGAELVRPGTSVKLSCKASGYTFTSYWMHWVKQRPGQGLEWIGVIDTSDSYTIYNQKFKGKATLTVDTSSSTAYMQLSSLTSEDSSVYFCARSGPGYFDVWGQGTTVTVSSGGGGSGGGGSGGGGSELQMTQSPASLSASVGETVTITCRASENIYSYLAWYQQKQGKSPQLLVYNAKTLAEGVPSRFSGSGSGTQFSLKINSLQPEDFGSYYCQHHYGTPYTFGGGTKLEIK
For B2, the binding result in [2] is on record as “no binding”; in experiment [3], “no binding”; in [4], “no binding”; in experiment [5] it was “no binding”; in [6], “binds”; in [7] it was “binds”. Also, in experiment [8], the binding result is on record as “binds”.

B3: CDH3-33 scFv (scFv)
scFv: EVQLVEQPGAELVRPGTSVKLSCKASGYTFTSYWMHWVKQRPGQGLEWIGVIDTSDSYTIYNQKFKGKATLTVDTSSSTAYMQLSSLTSGDSSVYFCARSGPGYFDVWGQGTTVTVSSGGGGSGGGGSGGGGSELVMTQSPASLSASVGETVTITCRASGNIHNYLAWYQQKQGKSPQLLVYNAKTLADGVPSRFSGSGSGTQYSLKINSLQPEDFGTYYCQHFWSTPYTFGGGTKLEIK
As to B3, the binding result in experiment [2] is recorded as “no binding”; in experiment [3] it was “no binding”; in experiment [6], “binds”; in [7], “binds”; in [8] it was “binds”; in [9] it was “binds”.

B4: CDH3-6 scFv (scFv)
scFv: EVQLVEESGPELVKPGASVKISCKASGYAFSSSWMNWVKQRPGKGLEWIGRIYPGDGETKYNGKFKGKATLTADKSSSTAYMQLSSLTSEDSAVYFCARQRDYGALYAMDYWGQGTSVTVSSGGGGSGGGGSGGGGSELVMTQSPASLSASVGETVTITCRASDDIYSYLAWYQQKQGKSPQLLVYNAKTLAEGVPSRFSGSGSGTQFSLKINSLQPEDFGTYYCQNHYVTPFTFGAGTKLEIK
For the molecule B4, the binding result in experiment [10] was “no binding”; in [6] it was “binds”; in [11] it was “binds”; in [7], “binds”; in [1], “binds”.

B5: CDH3-5 (scFv)
scFv: EVQLVEQSGAELVKPGASVKISCKASGYAFSTSWMNWVKQRPGKGLEWIGRIYPGDGETKYNGKFKGKATLTADKSSSTAYMQLSSLTSEDSAVYFCARQRDYGALYALDYWGQGTRVTVSSGGGGSGGGGSGGGGSELMMTQTPASLSASVGETVTFTCRASENIYSYLAWYQQKQGKSPQLLVYNAKTLAEGVPSRFSGSGSGTQFSLKINSLQPEDFGSYYCQHHYVPPYTFGGGTKLEIK
notes: Used as crude periplasmic extract and detected through a FLAG tag; also called CDH3-5 scFv
With B5, the binding result in experiment [10] was “no binding”; in experiment [6], “binds”; in experiment [11] it was “binds”; in experiment [7] it was “binds”.
